Measurements from patent publication US9273146 (Takeda / Millennium, dated 2016).
One block for each binder: values may come before it.

Assays:
[1] = target: T1, human GCC (guanylyl cyclase C) (human, UniProt P25092 24-1073); experiment: IHC on FFPE GCC-transfected and parental cell pellets
T1 construct: Target of the IHC on formalin-fixed, paraffin-embedded HEK293-GCC xenografts, GCC-transfected cell pellets and human colon tissues; also called hGCC; STAR

[2] = target: T1, human GCC (guanylyl cyclase C); experiment: automated IHC (TechMate) on FFPE colon tumors and cell pellets, antibody at 1.0 ug/ml overnight

T1 sequence (P25092 24-1073 limits assumed): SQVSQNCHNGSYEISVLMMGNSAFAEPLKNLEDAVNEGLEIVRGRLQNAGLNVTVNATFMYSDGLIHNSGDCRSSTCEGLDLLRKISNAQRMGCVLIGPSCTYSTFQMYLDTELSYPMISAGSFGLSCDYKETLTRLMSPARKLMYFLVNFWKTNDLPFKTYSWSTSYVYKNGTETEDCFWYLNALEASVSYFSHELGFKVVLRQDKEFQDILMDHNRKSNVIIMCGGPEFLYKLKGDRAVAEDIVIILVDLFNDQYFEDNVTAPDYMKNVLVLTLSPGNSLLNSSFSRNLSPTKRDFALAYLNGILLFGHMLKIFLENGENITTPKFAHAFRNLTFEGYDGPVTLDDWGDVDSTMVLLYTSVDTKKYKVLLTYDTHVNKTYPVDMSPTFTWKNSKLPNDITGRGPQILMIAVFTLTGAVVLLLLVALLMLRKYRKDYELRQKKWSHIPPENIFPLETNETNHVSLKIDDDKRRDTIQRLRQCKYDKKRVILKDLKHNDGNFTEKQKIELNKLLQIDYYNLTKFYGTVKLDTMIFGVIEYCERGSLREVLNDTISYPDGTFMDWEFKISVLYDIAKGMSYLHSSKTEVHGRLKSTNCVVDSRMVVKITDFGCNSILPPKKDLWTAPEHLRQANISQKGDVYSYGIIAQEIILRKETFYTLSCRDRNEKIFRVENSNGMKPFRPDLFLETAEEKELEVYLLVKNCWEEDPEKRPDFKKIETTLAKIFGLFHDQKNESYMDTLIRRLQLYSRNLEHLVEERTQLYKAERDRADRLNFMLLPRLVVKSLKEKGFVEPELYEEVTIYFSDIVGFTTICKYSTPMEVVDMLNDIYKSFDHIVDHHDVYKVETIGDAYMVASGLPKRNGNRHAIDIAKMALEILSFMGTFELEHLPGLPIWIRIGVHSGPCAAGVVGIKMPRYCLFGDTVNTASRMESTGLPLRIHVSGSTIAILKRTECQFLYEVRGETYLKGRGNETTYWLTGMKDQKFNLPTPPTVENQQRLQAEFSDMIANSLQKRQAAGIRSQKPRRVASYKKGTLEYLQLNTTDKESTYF

binding result [1]: binds
B1: MIL-44-67-4 (antibody, V domains shown)
VH: QSVEESGGRLVTPGTPLTLTCTASGSDISNYAISWVRQAPGKGLEFIGYISYGKSIYYASWAKGRFAISKTSSTTVDLEITSPTTEDTATYFCAREDSATYSPNLWGPGTLVTVSS
VL: AYDMTQTPASVEVAVGGTVTIKCQASQSINTYLAWYQQKPGQRPKLLIYRASTLASGVSSRFKGSGSGTEFTLTISGVECADAATYYCQQGYSYNNLDRAFGGGTEVVVTG
notes: Rabbit monoclonal IgG from a rabbit-rabbit hybridoma; also called MIL-44-67-4 antibody; subclone #67-4

binding result [2]: binds
B2: MIL-44-148-2 (antibody, V domains shown)
VH: QSVKESGGGLFKPTDTLTLTCTVSGFSLSSHRMNWVRQTPGKGLEWIAIITHNSITYYASWAKSRSTITRNTSENTVTLKMTSLTAADTATYFCAREDSMGYYFDLWGPGTLVTISS
VL: AYDMTQTPASVEVAVGGTVTIKCQASQSISNWLAWYQQKPGQSPKPLIYRASTLASGVSSRFRGSGSGTQFTLTISGVECADAATYYCQQTYTNNHLDNGFGGGTEVVVKG
notes: Rabbit monoclonal IgG from a rabbit-rabbit hybridoma
